The values that follow come from patent US20180364250A1 (COLORADO STATE UNIVERSITY RESEARCH FOUNDATION, published 2018).

In assay [1] the target is T1, Ubiquitin (free, untagged) (human, UniProt P0CG48 1-76).
T1 construct: also called free ubiquitin; unconjugated ubiquitin protein
The assay can be described thus: relative fluorescence competition against 5 nM Atto532-tagged ubiquitin on 600 nM tSR.

For assay [2], the target named is T2, Nedd8 (human, UniProt Q15843 1-76).
T2 construct: also called free Nedd8; Nedd8 protein
The assay can be described thus: direct titration, relative fluorescence of 10 nM Alexa488 tSR.

In assay [3] the target is T1, Ubiquitin (free, untagged). The assay can be described thus: fluorescence intensity of the Atto532-tagged sensor against free ubiquitin concentration, single-site fit.
The target of assay [4] is T2, Nedd8. As to the kind of experiment: fluorescence intensity, free Nedd8 titrated into Atto532-tIV.

T2 sequence (Q15843 1-76 limits assumed): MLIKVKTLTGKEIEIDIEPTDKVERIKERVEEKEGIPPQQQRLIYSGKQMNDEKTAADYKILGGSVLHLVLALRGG

B1: tSR chimeric polypeptide sensor (designed binder)
chain: MPSSHHHHHHSSGLVPRGSHMTEEEQIAYAMQMSLREAGGGSDLLCKKGCGYYGNPAWQGFCSKCWREEAHKCAAERAAAE
notes: His-tag leader, S5a^UIM, linker, Ruz; also called tSR chimeric peptide universal sensor
Take B1: the binding result in assay [1] is reported as “binds”.

B2: Alexa488-tagged tSR (designed binder)
chain: B1 chain
modifications: Alexa488 fluorophore, attachment site not stated
notes: also called Alexa488 tSR; fluorophore-tagged tSR
B2: in the assay with Nedd8 [2], the binding result is given as “no binding”.

B3: Atto532-tagged IsoT^ZnF (S227C) (designed binder)
chain: MPSSHHHHHHSSGLVPRGSHMKQEVQAWDGEVRQVSKHAFSLKQLDNPARIPPSGWKCSKCDMRENLWLNLTDGSILCGRRYFDGCGGNNHAVEHYRETGYPLAVKLGTITPDGADVYSYDEDDMVLDPSLAEHLSHFGIDMLKMQK
modifications: Atto532 fluorophore on the Cys of S227C (the bold C of the 2nd table)
B3: in assay [3], the binding result is “binds”.

B4: Atto532-tagged tIV L1 Cys (designed binder)
chain: MGSSHHHHHHSSGLVPRGSHMKQEVQAWDGEVRQVSKHAFSLKQLDNPARIPPSGWKCSKCDMRENLWLNLTDGSILCGRRYFDGSGGNNHAVEHYRETGYPLAVKLGTITPDGADVWSYDEDDMVLDPSLAEHLSHFGIDMLKMQKGSCAAAEEAELDLKAAIQESLREA
modifications: Atto532 fluorophore on the Cys of linker 1 (the bold C of the 2nd table)
notes: Two domains: IsoT^ZnF and Vps27^UIM; also called Atto532-tIV
For orientation: Kd means the free concentration of one partner at which half of the binding sites on the other are occupied at equilibrium, for simple one-to-one binding. Read a low Kd as a tighter complex. Regarding B4, the Kd with Nedd8 [4] is 9.4 µM. Also, the binding result in assay [3] is “binds”.
